The results in this text go back to article PMC9048679, “Correlation Between Improved Mating Efficiency and Weakened Scaffold-Kinase Interaction in the Mating Pheromone Response Pathway Revealed by Interspecies Complementation” (Frontiers in Microbiology, 2022).

What all share (experiment): two-hybrid; Matchmaker GAL4 system; Ste5 forms on Gal4-AD (pGADT7, AH109), Ste7 orthologs on Gal4-BD (pGBKT7, Y187), diploids on SC-Leu-Trp; quantitative β-galactosidase assay of cell lysate with ONPG; units of the same BD-Ste7 with void pGADT7 subtracted; mean of three colonies
The target in assay [1] is KlSte7 (Ste7 of Kluyveromyces lactis), Gal4-BD fusion (K. lactis) (UniProt Q6CSZ8).
Assay [2] concerns the target KmSte7 (Ste7 of Kluyveromyces marxianus), Gal4-BD fusion (K. marxianus).
Assay [3] deals with T1, KlSte7 (Ste7 of Kluyveromyces lactis), Gal4-BD fusion (K. lactis, UniProt Q6CSZ8 1-504).
T1 construct: Ste7 (MAPKK) of Kluyveromyces lactis, KEGG KLLA0_C16577g; ORF cloned into the EcoRI site of pGBKT7; source: yeast two-hybrid fusion (pGBKT7, transformed into Y187, diploid with AH109)
T1 sequence (looked up): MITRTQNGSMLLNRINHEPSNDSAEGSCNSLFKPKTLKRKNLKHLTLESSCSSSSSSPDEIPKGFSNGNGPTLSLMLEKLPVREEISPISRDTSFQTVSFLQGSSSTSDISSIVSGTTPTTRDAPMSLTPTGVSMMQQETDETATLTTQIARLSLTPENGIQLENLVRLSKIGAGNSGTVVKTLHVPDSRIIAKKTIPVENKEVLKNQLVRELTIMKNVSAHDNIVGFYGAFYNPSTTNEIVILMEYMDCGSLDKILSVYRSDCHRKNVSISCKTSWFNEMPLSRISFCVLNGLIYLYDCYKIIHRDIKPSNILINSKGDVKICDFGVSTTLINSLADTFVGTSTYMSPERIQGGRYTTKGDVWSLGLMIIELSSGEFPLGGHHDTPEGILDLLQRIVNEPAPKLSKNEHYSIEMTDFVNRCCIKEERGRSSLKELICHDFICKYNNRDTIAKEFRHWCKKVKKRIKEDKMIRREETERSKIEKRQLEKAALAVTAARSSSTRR
To be noted: partners not purified.

For assay [4], the target named is T2, KmSte7 (Ste7 of Kluyveromyces marxianus), Gal4-BD fusion (K. marxianus, UniProt A0ABX6F0V6 1-494).
T2 construct: Ste7 (MAPKK) of Kluyveromyces marxianus, KEGG KLMA_70246; ORF cloned into the EcoRI site of pGBKT7; source: yeast two-hybrid fusion (pGBKT7, transformed into Y187, diploid with AH109)
T2 sequence (looked up): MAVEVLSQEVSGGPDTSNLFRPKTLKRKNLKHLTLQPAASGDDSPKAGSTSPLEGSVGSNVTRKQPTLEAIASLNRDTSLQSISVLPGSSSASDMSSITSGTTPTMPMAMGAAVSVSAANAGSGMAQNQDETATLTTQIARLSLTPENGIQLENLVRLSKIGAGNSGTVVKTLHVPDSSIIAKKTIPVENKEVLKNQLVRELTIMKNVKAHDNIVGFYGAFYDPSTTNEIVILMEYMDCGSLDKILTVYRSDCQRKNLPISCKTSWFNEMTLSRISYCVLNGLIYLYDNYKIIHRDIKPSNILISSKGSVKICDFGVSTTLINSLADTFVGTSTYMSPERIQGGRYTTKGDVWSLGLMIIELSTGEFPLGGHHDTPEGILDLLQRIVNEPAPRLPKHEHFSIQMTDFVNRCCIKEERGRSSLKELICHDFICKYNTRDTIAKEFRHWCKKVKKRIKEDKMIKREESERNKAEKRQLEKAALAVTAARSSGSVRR
To be noted: partners not purified.

In the case of “KlSte5-KmBD (KlSte5 with its Ste7-binding region replaced by that of KmSte5), Gal4-AD fusion (from UniProt A0ABX6ETE1 660-763)”, the figures for the strength of the interaction (units of β-galactosidase) (units of β-galactosidase) in assay [1] and in assay [2] were 20.3 and 11, respectively.
For “KmSte5-KlBD (KmSte5 with its Ste7-binding region replaced by that of KlSte5), Gal4-AD fusion (from UniProt A0ABX6ETE1 1-659)”, the figures for the strength of the interaction (units of β-galactosidase) (units of β-galactosidase) in assay [1] and in assay [2] were 31.8 and 14.9, respectively.

B1: KmSte5 (Ste5 of Kluyveromyces marxianus), Gal4-AD fusion (natural protein, K. marxianus, UniProt A0ABX6ETE1 1-763, looked up)
chain: MNSQEILFQLTNVGSTPVSSKNDTMTTPTSGSNTSSPRRWTELFSKKRAKTPSISTPSTSSSAVSSLHDGSPVRPGSKQSFRHFNIDSALQYPPVMQSPESYHSAGNGNGSGHGNVQVGKKPHRRGGNKSWKNEKCCICRDLCSFKGSTERVIILQCNHMCHEDCLMVSLNPVSKTFDLYDALPKCQMCSMLCVPSQEDMKQRLRNHLLTVNSSSSDQLSSAIPQVQSQLKPHNSPENTRTGIGPLAPPPPPLSMRNAVKTTPTNRDIRLSFASSLKPPVFVTPSVRDSWRLPRASSIKRRSNNYRGSTISALSSITSSSSLYNDSQLVCSLHIQRQYFMQAFLTSFEEIKPWEIDSRYGLLRLIDYFLISLDDQGFKQCCCYLFSEYLLLCQPSSKASSNVLQFSSYRFLQLNSPANIELIDATTLELKAKTGERVRIKPFNSDTKSLEKWITAFFDPTLTFGNLDFTSIPLPDFVSAMPSADDSRTIIVRRQNTINETIVTAGPRDSTLFTSISSILSIKRSTPRELNVILQVDRRKLKSENLITIKNVLSALTWKYHDFNCCIVGVDGLIVKIGGAREILDSWAEISDAGTQPFSPALLYKTWYKERGKVCNNAGVLVISNASMETGKTCLFHDYRMFANVGKRHVNELKIKVGFLNVDYTNKIKELVEIQDWNELLEAVSYSFNINFDDDDDDDDDEGDSDTSDSFSVGSSEFNKSLNSDNERLVRPPSPTSFEDIEADSHSQFDDDSELQHSIIYDYL
notes: Ste5 of Kluyveromyces marxianus, KEGG KLMA_20171; probably the whole ORF; also called natural KmSte5; source: yeast two-hybrid fusion (pGADT7, transformed into AH109, diploid with Y187)
B1: the “strength of the interaction (units of β-galactosidase)” value in assay [3] was 30 units of β-galactosidase; in assay [4], 22.8 units of β-galactosidase.

B2: KlSte5 (Ste5 of Kluyveromyces lactis), Gal4-AD fusion (natural protein, K. lactis, UniProt Q6CKB4 1-746, looked up)
chain: MSRGNTSSMNSQDILFQLTNVGSSPVPKLDTGSTSGSNTSSPRRWTELFSKKRVKTPSVGTPSTASSMISSFYDSSPIRPVSKQHPKHLLVDPIMPPPPIMLSPIGHETLGKKPTRKNGNKSWKNERCCICGDLCSFKGSNEKVIPLECNHMCHEDCLMVSLRPLPHKSNLYDALPKCDICSMSCIPGQEDMRQKVRSHLLTLPDDGESVGLEPYNPQENYERIKLCDADLLPKHSGNDETFPHLQTTRTTARNNDIRLSFAFSLKPGKTVTPSLRDSIRLHRSRSIKRRSNFRGSTVSGLSSIVSSSSKDDCQLPSLHVQRQYFIQAFLNSFSEVKPWEIDAKYGLLRLIDNFLISLDGINFQHQVCYLFSEYLLVCRPSPATSANVLQFSSYRCFQLNNPPELDLLDATTLESKSRSGERILIKPYGLDTKALEKWITALFDLTLPFGNYDFTSIKVPEFVACIPSTNDTGTIIVRRQSTLNETLIPKTIRDSSVLTSISSILSIKRATPNELNLVLQLDKRKTNEDNIVSIKNVILALTWKFSTFNCCIVDVEGMVINCGTANDVLNSLAGPIKSNGNQPFSPDLLHQLWYRQKQKICKNVGVVVLSNSSMENGKSCLFSDYRIFADAGKRHPNELKIKVGFLNVDYSDNIKELVEIQDWNELLEAVAYSFNLSFDDDLDSSDCVSTSSSDFEVDSVPDKNRTFRLSSPISWENHVQADLTGSMNGISESIEDRQSNHMYDYL
notes: Ste5 of Kluyveromyces lactis, KEGG KLLA0_F12023g; probably the whole ORF; source: yeast two-hybrid fusion (pGADT7, transformed into AH109, diploid with Y187)
B2: the entries for the “strength of the interaction (units of β-galactosidase)” value in assay [3] and in assay [4] were 13.7 units of β-galactosidase and 8.13 units of β-galactosidase, respectively.
